Reference: the supplement of paper PMC10567573

B1: TRIM39 (parent)
chain: YPCVLATEGFTSGRHYWEVEVGDK
B2: TRIM15 (parent)
chain: LLARLRELEQQIWKERDEYITKVS

Variants of: B1
Assay: protein stability index of a GFP-peptide fusion (GPS, HEK-293T) (PSI 1-6); higher = more stable
Conditions: c terminus: a fixed tail appended
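Also: lentivirally expressed fusions sorted by FACS into six bins by GFP to DsRed ratio, PSI derived from sequencing read proportions per bin multiplied by bin number.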

Protein stability index of substitutions, site by site:
V19: W 2.21 | L 2.35 | P 2.13 | E 2.59 | Q 2.86 | C 2.18 | S 1.93 | R 2.4 | I 2.19 | T 1.41 | G 2.6 | K 2.98 | H 2.85 | M 2.63 | A 1.96 | N 2.54 | Y 2.64 | F 2.21 | D 3.18
D23: A 1.79 | N 3 | E 1.85 | L 2.51 | M 1.57 | R 1.45 | G 1.82 | S 1.76 | V 1.65 | Q 2.44 | C 1.71 | T 2.32 | Y 1.91 | F 1.58 | H 2.98 | K 1.02 | P 1.43 | I 1.76
G22: C 1.66 | E 1.88 | Y 1.98 | F 1.53 | M 1.58 | T 1.76 | R 1.75 | D 1.92 | V 1.82 | P 1.85 | K 2.5 | I 1.67 | H 1.95 | Q 2.38 | L 1.81 | W 2.37 | N 1.91 | S 2.19 | A 2.05
K24: R 1.75 | P 2.16 | N 2.1 | V 1.96 | A 1.28 | M 1.95 | E 2.66 | Y 2.5 | G 1.92 | C 2.21 | W 1.96 | H 1.57 | F 2.23 | D 1.07 | T 2.36 | I 2.65 | Q 1.7 | S 1.87 | L 2.05
E18: N 2.38 | Q 1.05 | Y 2.71 | S 2.72 | P 1.92 | W 2.2 | M 1.51
V21: I 2.24 | L 1.57 | D 2.2 | G 1.84 | Q 1.87 | S 1.88 | M 1.9 | N 2.03 | R 2.05 | W 1.92 | T 1.6 | Y 2.14 | P 1.43 | H 1.86 | E 1.77 | F 1.95 | A 2.51 | K 2.15
E20: T 2 | G 3.06 | W 2.16 | M 1.59 | N 2.06 | R 3.35 | F 1.93 | P 1.57 | Y 1.96 | C 2.73 | Q 1.51 | L 2.32 | K 2.4 | D 1.98 | V 2.31 | I 1.96 | A 2.14 | H 1.58

Variants of: B2
Assay: as above
Conditions: c terminus: a fixed tail appended

Protein stability index: each site, then its substitutions
Q11: Y 1.88 | D 2.36 | S 2.51 | V 2.12 | H 1.98 | R 2.29 | N 1.68 | E 1.01 | W 1.08 | G 1.41 | M 1.08 | P 1.62 | A 1.98
E15: R 1.05 | G 1.18 | N 1 | D 2.08 | Q 1.47 | A 1.28 | I 1.42 | F 2.15 | L 2.15
K14: N 1 | A 1.24 | E 1.05 | L 2.06 | I 2.26 | P 2.2 | H 1.67 | F 1.68 | T 2.85
W13: E 2.03 | V 1.96 | Y 1.51 | T 1.69 | G 2.31 | I 1.32 | H 1.37 | A 1.52 | R 1.77 | S 1.68 | F 2.83 | Q 2.46 | K 2.24 | L 1.71 | C 2.68 | P 1.81
D17: E 1.78 | Q 3.32 | L 1.04 | P 1.86 | N 1 | R 2.14
R16: L 3.68 | Y 2.13 | A 1.78 | K 1.92 | H 1 | M 1.61 | Q 1.58 | C 2 | E 2
I12: N 1.24 | D 2.75 | R 2.21 | M 3.6 | F 2.15 | L 1.67 | Q 2.34 | P 1.77 | W 1.43 | Y 2.13 | E 2.38 | S 1.35 | C 1.42 | H 1.8 | V 1.65 | A 1.88
R6: V 3.95 | D 1.79 | H 1.65 | Q 1.44 | K 2.13 | C 1.8 | T 1.76 | E 1.82 | S 2.56 | P 2.44
L5: G 2.6 | A 1.91 | S 3.44 | W 1.34 | T 2.44 | R 2.28 | V 2.95 | E 2.96 | M 1.83 | D 2.44 | Q 2.64 | H 2.72 | I 2.98 | P 2.65 | F 2.17 | N 2.43 | Y 1.77
R4: F 1.73 | S 1.78 | W 2.67 | Y 1.92 | P 1.6 | G 2.56 | Q 1.74 | N 1.58 | M 2.36
L2: M 1.49 | D 2.55 | P 3.13 | Y 4.12 | T 2.56 | N 2.18 | Q 1.22 | E 1.38 | W 2.23 | C 1.6 | S 2.34 | V 1.74 | G 1.9 | H 2.13 | A 2.12 | F 1.67 | I 1.65 | K 1.25
L1: H 2.19 | T 1.63 | P 2.37 | S 2.12 | F 1.55 | N 3.22 | G 1.55 | M 1.03 | E 2.2 | K 2.05 | R 1.87 | D 2.31 | A 1.79 | Q 2.83 | C 1.84 | Y 2.35
L8: A 1.14 | K 3.04 | D 2.48 | T 2.74 | N 2.03 | R 1.44 | G 2.9 | W 1.62 | I 2.51 | Y 2.22 | P 2.55 | S 1.75 | E 2.24 | V 1.69 | H 2.12 | C 1.49
Q10: F 3.2 | T 1.09 | G 1.58 | K 2.02 | V 2.31 | I 2.65 | W 3.11 | E 1.51 | S 1.18 | P 1.4 | D 2.21 | R 2.02 | M 3.32 | N 2.35
E7: N 1.84 | Y 3.38 | D 1.6 | P 2.57 | L 2.97 | C 2.53 | Q 1.61 | R 1.07 | T 3.56 | V 3.16 | I 1.03
E9: D 3.17 | K 1.62 | R 2.22 | Y 1.59 | F 3.06 | W 1.69 | H 1.45 | C 2.11 | Q 1.07 | L 1.8 | N 1.94 | T 3.38 | I 1.96 | P 2.29
A3: M 2.34 | V 2.49 | T 2.2 | L 2 | G 1.44 | C 2.64 | P 1.99 | Q 1.9 | E 3.27 | H 1.46 | S 1.69 | D 2.18 | F 2.9
